According to the Human Domainome abundance scans (Beltran et al. 2025):

B1: Serine/threonine-protein kinase A-Raf, residues 21 to 89; numbered along this chain, P10398 (parent)
chain: VKVYLPNKQRTVVTVRDGMSVYDSLDKALKVRGLNQDCCVVYRLIKGRKTVTAWDTAIAPLDGEELIVE

Variants of: B1
Assay: abundance fitness (aPCA) (normalised: wild type 0, dead -1); higher = more abundant; growth selection in yeast, the domain comes from the species named
Conditions: Homo sapiens

Abundance fitness: each site, then its substitutions
Y42: D -0.928 | H -0.557 | R -1.15 | E -1.02 | P -0.926 | Q -0.945 | I -0.844 | N -0.159 | A -1.05 | T -0.561 | W -0.366 | G -0.824 | L -1.02 | K -0.481 | M -0.684 | F -0.004 | S -0.525 | V -0.864
V41: Q -0.849 | M -0.711 | T -0.8 | P -0.555 | L -0.143 | G -0.899 | H -0.641 | I -0.507 | A -0.274 | W -0.549 | R -0.559 | N -0.836 | F -0.846 | C -0.15 | K -0.685 | D -0.841 | S -0.515 | Y -0.938
V51: K -0.001 | R -0.002 | Y -0.255 | M 0.093 | I 0.102 | Q -0.032 | A -0.102 | G -0.662 | T -0.324 | E -0.128 | L 0.026 | P 0.031 | H -0.156
I45: L -0.11 | F -0.179 | E -0.224 | A -0.318 | Y -0.077 | R -0.098 | H -0.026 | C -0.458 | M -0.508 | T -0.319 | N -0.435 | P -1.1 | V -0.067 | Q -0.078 | D -0.1 | S -0.087 | W -0.1 | G -0.198 | K 0.089
D37: L -0.567 | T -0.387 | G -0.219 | W -0.838 | R -0.198 | Q 0.14 | S -0.196 | A -0.39 | N -0.186 | P -0.662 | V -0.755 | H -0.097 | Y -0.408 | C -0.273 | M -0.499 | I -0.39 | E -0.141
T50: S -0.402 | A -0.227 | R -0.173 | E -0.515 | P -0.715 | V 0.362
R43: W -0.911 | S -0.305 | C -0.742 | P -0.822 | M -1 | D -0.939 | Q -0.102 | T -0.225 | V -0.703 | G -0.907 | E -0.824 | L -0.963 | I -1 | N -0.602 | H -0.072 | A -0.721 | K -0.205
A59: C -0.188
W54: P -0.924 | Q -0.916 | M -0.499 | Y -0.756 | V -0.913 | T -0.797 | K -0.843 | F -0.89 | S -0.808 | R -0.879 | E -0.96 | N -0.917 | G -1.03 | D -0.743
D55: S -0.168 | Q -0.024 | I -0.452 | V -0.773 | N -0.098 | E -0.089 | T -0.335 | H -0.234 | K -0.347 | F -0.872 | G -0.204 | P -0.852 | L -0.908 | R -0.343 | Y -0.648 | C -0.52 | A -0.346 | M -0.557
A53: K -0.079 | E 0.08 | M -0.549 | L -0.455 | T -0.127 | Y -0.377 | H -0.098 | N -0.257 | C -0.166 | R -0.149 | Q -0.078 | P 0.032 | W -0.728 | S -0.058 | G -0.033 | D -0.03
K46: C -0.133 | V -0.792 | R -0.024 | L -0.437 | Y -0.41 | G 0.014 | A 0.001 | N 0.228 | T -0.383 | W -0.667 | P -0.941 | D 0.199 | E 0.102 | S -0.08 | Q -0.009 | H -0.259
L44: G -0.767 | I 0.073 | P -0.853 | N -0.082 | Q -0.307 | S -0.15 | D -0.65 | F -0.197 | R -0.108 | K -0.031 | Y -0.037 | C -0.684 | M 0.069 | W -0.059 | V -0.112 | E -0.279 | A -0.475 | T -0.169
T52: G -0.956 | F -0.708 | D -0.978 | Y -0.188 | S -0.567 | I 0.141 | L 0.052 | W -0.31 | P -1.04 | M 0.118 | R -0.529 | V 0.117 | H -0.625 | A -0.174 | C -0.161 | Q -0.317 | K -0.356
T56: I -0.47 | F -0.693 | G -0.21 | R -0.276 | E 0.106 | H -0.151 | V -0.235 | S -0.009 | A 0.021 | D -0.069 | N -0.278 | M -0.095 | K -0.153 | C -0.09 | Y -0.225 | P -0.614 | L -0.253
K49: Y -0.668 | H -0.551 | G -0.863 | A -0.516 | F -0.63 | L -0.331 | M -0.22 | S -0.8 | Q -0.566 | D -0.804 | R -0.135 | V -0.934 | P -0.445 | C -0.672 | T -0.968 | E -0.847
Q36: T -0.162 | Y -0.169 | R 0.058 | S -0.178 | V -0.028
I58: L -0.015 | K -0.86 | Y 0.146 | G -0.725 | C -0.001 | D -0.881 | N -0.858 | T -0.729 | S -0.278 | F -0.021 | Q -0.952 | P -0.872 | M -0.004 | V -0.185 | A -0.201
R48: F -0.216 | P -0.474 | W -0.535 | E 0.025 | K 0.097 | T -0.072 | M -0.183 | D -0.271 | A -0.128 | C -0.366 | H -0.025 | V 0.05 | Q -0.094 | L -0.307 | G -0.479 | S -0.288
C39: M -0.432 | W -0.841 | P -0.805 | E -1.16 | H -0.171 | S -0.585 | A -0.504 | F -0.466 | G -0.944 | N -0.848 | R -0.987 | V -0.161 | I -0.766
C38: W -0.179 | N 0.141 | Q -0.037 | I -0.074 | H -0.019 | R -0.094 | M 0.12 | E 0.118 | V -0.075 | F -0.136 | P -0.677 | G 0.038 | Y -0.082 | T -0.004
V40: T -0.164 | S -0.321 | C -0.087 | A -0.021 | K -0.117 | G -0.857 | Y -0.273 | M -0.058 | R -0.131 | E -0.253 | P -0.925 | I -0.09 | Q 0.073 | L -0.259 | F -0.828
G47: K -0.768 | M -1.06 | R -0.841 | E -0.573 | H -0.907 | L -0.873 | C -0.826 | S -0.734 | D -0.71 | P -0.959 | Q -0.359 | F -0.998 | N -0.665 | W -0.888 | V -0.863
